Measured values: article PMC6200708, “Tannerella forsythia Tfo belongs to Porphyromonas gingivalis HmuY-like family of proteins but differs in heme-binding properties” (Bioscience Reports, 2018)

Columns and labels:
HmuY = HmuY (Porphyromonas gingivalis, UniProt A2BCY8); test: UV-visible difference-spectrum heme titration of purified protein, one-site model; CD and MCD; type: binding
[1] = target: Porphyromonas gingivalis A7436 HmuY protein (Porphyromonas gingivalis A7436); test: SEC; holo protein (with heme), under oxidizing conditions
[2] = target: Porphyromonas gingivalis A7436 HmuY protein (Porphyromonas gingivalis A7436); test: SDS/PAGE; purified protein run on SDS/PAGE; samples solubilized at 37°C for 1 h or at 100°C for 5 min
[3] = target: Tannerella forsythia ATCC 43037 Tfo protein (Tannerella forsythia ATCC 43037); test: SEC; holo protein (with heme), under reducing conditions

Question: `C=CC1=C(C)C2=Cc3c(C=C)c(C)c4[n]3[Fe][n]3c(c(C)c(CCC(=O)O)c3=CC3=NC(=C4)C(C)=C3CCC(=O)O)=CC1=N2` [heme] was tested. Which Kd (HmuY) did it give?
Answer: < 1 nM

Question: With “Porphyromonas gingivalis A7436 HmuY protein (natural protein)” as the compound, how does the stoichiometry N [1] read?
Answer: 2

Question: What about the stoichiometry N [2] of the same compound?
Answer: 2

Question: “Tannerella forsythia ATCC 43037 Tfo protein (natural protein)” was tested. Which stoichiometry N [3] did it give?
Answer: 2
